Assay results taken from publication PMC7952905.

Target: human ACE2 extracellular domain (19-615) (human) (UniProt Q9BYF1)
Assay: SPR

**Q.** How did the Kd turn out when “RaTG13 RBD (333-526) (from UniProt A0ABF7PLN6 333-526) (domain or fragment; other documents disagree on this pair)” was run?
**A.** Its Kd is 500 nM.
